B1: hNGAL mutein N4 with C-terminal Strep-Tag II (phNGAL15 derivative, purified) (designed binder, not shown: small tags and cut ends)
chain: QDSTSDLIPAPPLSKVPLQQNFQDNQFQGKWYLVGLAGNDIYRADSLPGLMYATIYELKEDKSYNVTSVVFYDKKCVYSIRTFVPGSQPGEFTLGNIKSYEAVTSFLVRVVSTNYNQHAMVFFKDVRPNSEEFKITIYGRTKELPSELKENFIRFSKSLGLPENHIVFPVPIDQCIDG
B2: hNGAL mutein RFY-E with C-terminal Strep-Tag II (phNGAL15 derivative, purified) (designed binder, not shown: small tags and cut ends)
chain: QDSTSDLIPAPPLSKVPLQQNFQDNQFQGKWYLVGLAGNGITRVDTLPSRMYATIYELKEDKSYNVTSVPFMGKKCKYKIRTFVPGSQPGEFTLGNIKSYMSNTSFLVRVVSTNYNQHAMVFFKQVHKNPESFKITIYGRTKELPSELKENFIRFSKSLGLPENHIVFPVPIDQCIDG
B3: biotinylated synthetic thrombospondin peptide from the cell binding domain of human Thrombospondin1 (peptide)
peptide: RFYVVMWKXXK
modifications: Aca-Aca (amino caproic acid) after Lys8; C-terminal Lys-Biotin
notes: Immobilised through its C-terminal biotin on avidin (ELISA) or streptavidin chip (SPR)
B4: hNGAL mutein RFY-C with C-terminal Strep-Tag II (phNGAL15 derivative, purified) (designed binder, not shown: small tags and cut ends)
chain: QDSTSDLIPAPPLSKVPLQQNFQDNQFQGKWYLVGLAGNGIHRLDNVPPNMYATIYELKEDKSYNVTSVDFLMKKCPYFIRTFVPGSQPGEFTLGNIKSYPFLTSFLVRVVSTNYNQHAMVFFKNVPRNYEEFKITIYGRTKELPSELKENFIRFSKSLGLPENHIVFPVPIDQCIDG

Assay [1] addresses T1, recombinant human cytokine interleukin-8 (Promocell) (human, UniProt P10145 23-99, biotin groups on lysine residues (NHS-SS-Biotin) in the ELISA; digoxigenin groups (DIG-NHS) in the colony screening).
T1 construct: also called IL-8
T1 sequence: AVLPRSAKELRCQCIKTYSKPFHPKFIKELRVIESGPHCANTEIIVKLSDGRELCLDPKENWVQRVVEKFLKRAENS
The experiment in a line: ELISA, apparent KD, biotinylated IL-8 on avidin-coated plate, anti-strepII-antibody-HRP. How it is done:
(§1) For the detection of binding in an ELISA experiment two rows (12 wells each) of a 96 microtiter plate (Maxisorb, Nunc) were coated with 50 μl of a 50 μg/ml solution of Avidin (Fluka) in PBS overnight at 4° C. After washing three times with PBST, one row was treated with 50 μl/well of a 1 μM solution of biotinylated IL-8 in PBST, whereas the second row was incubated with PBST as a control. After 1 hour at RT, all wells were washed three times with PBST and unspecific binding sites were saturated with 100 μl of 4% w/v skimmed milk powder in PBST for 1 hour at RT.
(§2) As a control for unspecific binding to avidin, a similar dilution series of the mutein N4 was applied to wells where the IL-8 had been omitted. Complex formation was allowed for 1 hour at RT, followed by three washes with PBST and incubation at RT for 1 hour with anti-strepII-antibody-HRP-conjugate (IBA) diluted 1:8000 in PBST.
(§3) Detection of bound mutein N4 was accomplished using 3,3′,5,5′-tetramethylbenzidine and H₂O₂ as substrates for horseradish-peroxidase. For this purpose, all wells were filled with 100 μl of a ready-to-use HRP-substrate solution (Biochem Immunosystems). The colour development was stopped after a few minutes by adding 100 μl of 0.3 M sulphuric acid. Product formation was measured via endpoint absorption at 450 nm in a SpectraMax 250 photometer (Molecular Devices).

The target in the next assay is Avidin (Fluka) (UniProt P02701 25-152). The experiment in a line: ELISA control without IL-8: avidin-coated wells only, mutein N4 titrated, anti-strepII-antibody-HRP detection, OD450. As to the method: as §1, §2, §3
In assay [2] the target is streptavidin of the streptavidin-coated sensor chip SA (BIACORE) (UniProt P22629 37-163, limits assumed). The experiment in a line: SPR, BIAcore X, streptavidin-coated sensor chip SA.
The target of assay [3] is B3. The assay is described as follows: SPR, BIAcore X, steady state, biotinylated peptide on sensor chip SA. How it is done: The binding affinity of the hNGAL muteins to the thrombospondin peptide SEQ ID NO: 18 was determined by surface plasmon resonance (SPR) using the BIAcore X system (BIACORE). First 35 μl of the biotinylated thrombospondin peptide at a concentration of 1 μg/ml (prepared by mixing 1 μl of a 200 μg/ml peptide solution in DMF with 199 μl HBS buffer containing 150 mM NaCl, 10 mM HEPES pH 7.4, 3 mM EDTA) was immobilized to the surface of one flow channel of a streptavidin-coated sensor chip SA (BIACORE) according to the instructions of the manufacturer, resulting in an amount of ca. 400 response units (RU). Binding curves of the hNGAL muteins were then measured by applying 35 μl of each purified muteins from Example 9 in HBS buffer at concentrations between 500 nM and 25 nM using HBS-EP (HBS containing 0.005% Surfactant P20) as a running buffer and a continuous flowrate of 5 μl/min.
Steady state resonance values were measured at the end of the injection phase for the channel with the immobilized thrombospondin peptide for each protein concentration applied. Only negligible buffer effects were detected in the second channel of the sensor chip, which served as a control. These values were directly plotted against the concentration of the hNGAL mutein. […]

Assay [4] addresses B3. The assay is described as follows: ELISA, apparent KD, biotinylated peptide on avidin-coated plate, anti-strepII-antibody-HRP. As to the method:
For the detection of binding in an ELISA (Enzyme-linked Immunosorbent Assay) the wells of a microtiter plate (Maxisorb, Nunc) were filled each with 50 μl of a 50 μg/ml solution of Avidin (Fluka) in PBS and were incubated over night at room temperature (RT). After washing three times with PBST, 50 μl of a 1 μM solution of the biotinylated thrombospondin peptide SEQ ID NO:18 in PBST were filled into the wells and the peptide was immobilized via complex formation between biotin and the preadsorbed avidin. After incubation for one hour the solution was removed and the wells of the microtiter plate were washed three times with PBST. In order to saturate unspecific binding sites, the wells were filled with 100 μl of 4% w/v BSA in PBST and incubated for one hour at RT, followed by three times washing with PBST.
Then a dilution series of the muteins from Example 9 was prepared, starting from 100 nM concentration, and followed by 1 hour incubation at RT. As a control for unspecific binding to avidin, a similar dilution series of hNGAL and its muteins was applied to wells where the thrombospondin peptide had been omitted. After washing three times with PBST, Anti-strepII-antibody-HRP-conjugate (IBA), diluted 1:8000 with PBST, was applied to the wells. Incubation was performed for 1 hour at RT and followed by washing three times with PBST and twice with PBS. […]

For assay [5], the target named is T2, original hNGAL with C-terminal Strep-Tag II (encoded by phNGAL15, purified) (human, UniProt P80188 21-198).
T2 construct: mature
The assay is described as follows: ELISA: biotinylated thrombospondin peptide on avidin-coated wells, hNGAL titrated, anti-strepII-antibody-HRP detection, A450. As to the method:
For the detection of binding in an ELISA (Enzyme-linked Immunosorbent Assay) the wells of a microtiter plate (Maxisorb, Nunc) were filled each with 50 μl of a 50 μg/ml solution of Avidin (Fluka) in PBS and were incubated over night at room temperature (RT). After washing three times with PBST, 50 μl of a 1 μM solution of the biotinylated thrombospondin peptide SEQ ID NO:18 in PBST were filled into the wells and the peptide was immobilized via complex formation between biotin and the preadsorbed avidin. After incubation for one hour the solution was removed and the wells of the microtiter plate were washed three times with PBST. In order to saturate unspecific binding sites, the wells were filled with 100 μl of 4% w/v BSA in PBST and incubated for one hour at RT, followed by three times washing with PBST. […]
Detection of bound hNGAL muteins was accomplished using 3,3′,5,5′-tetramethylbenzidine and H₂O₂ as substrates for horseradish-peroxidase. For this purpose, 100 μl of a ready-to-use HRP-substrate solution (Biochem Immunosystems) was filled into the wells and the colour development was stopped after a few minutes by adding 100 μl of 0.3 M sulphuric acid. Product formation was measured via the endpoint absorption at 450 nm in a SpectraMax 250 photometer (Molecular Devices).

The values below come from US20060088908A1 (Pieris, published 2006).

Sequence of streptavidin of the streptavidin-coated sensor chip SA (BIACORE) (P22629 37-163 limits assumed): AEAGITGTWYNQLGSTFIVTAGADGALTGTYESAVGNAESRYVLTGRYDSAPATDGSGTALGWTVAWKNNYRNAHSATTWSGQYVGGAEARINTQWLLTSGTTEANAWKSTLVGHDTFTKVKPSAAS
Sequence of Avidin (Fluka) (P02701 25-152 limits assumed): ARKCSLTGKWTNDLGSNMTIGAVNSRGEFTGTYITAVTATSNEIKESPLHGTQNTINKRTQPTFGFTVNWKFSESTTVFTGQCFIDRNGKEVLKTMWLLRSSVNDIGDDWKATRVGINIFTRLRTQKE

Turning to B1, the Kd in assay [1] is 300 nM. The binding result with Avidin (Fluka) is given as “no binding (tested: 1000 nM)”.
As for B2, the binding result in assay [2] is “no binding”. Besides, the Kd in assay [3] is 107 nM; in assay [4], 8.2 nM.
For B3, the binding result in assay [5] is reported as “no binding (tested: 200 nM)”.
In the case of B4, the binding result in assay [2] is recorded as “no binding”. Further, the Kd in assay [3] was found to be 106 nM; in assay [4], 4.6 nM.
